These are literature values, as cited in article PMC8864681.

Among the targets are Asp67 (UniProt position 1513, LKPGVDYTITV); Asp14 (UniProt position 40, ERQHMDSSTSA); Asp28 (UniProt position 50, MTDDIDEVRWE); Asp26 (UniProt position 26, KLVVVDFSATW).

Turning to “Fibronectin, tenth type III cell adhesion module (FN10) (Homo sapiens)”, the pKa with Asp67 is 4.2.
Take “Ribonuclease A (pancreatic ribonuclease) (Bos taurus)”: in the data set with Asp14, the pKa is 2.0.
For “T-cell surface antigen CD2 (cell adhesion molecule CD2) (Rattus rattus as printed ('black rat'); the PDB 1HNG source is commonly annotated as rat (Rattus norvegicus))”, the pKa with Asp28 is 3.57.
Turning to “Thioredoxin (recombinant human) (Homo sapiens)”, the pKa with Asp26 is listed as 9.9.

For orientation: pKa means the pH at which an ionisable group is half protonated.
